Values quoted from earlier work as cited in patent US20120225099A1, “COMPOSITIONS FOR AND METHODS OF […] CYCLASE C” (Thomas Jefferson University, priority 2009, published 2012).
Ends that are not written are not given here.

Target: guanylate cyclase (ST receptors) (Homo sapiens, UniProt P25092)
Settings: relative to native ST; about

Sequence of guanylate cyclase (ST receptors) (P25092 24-1073): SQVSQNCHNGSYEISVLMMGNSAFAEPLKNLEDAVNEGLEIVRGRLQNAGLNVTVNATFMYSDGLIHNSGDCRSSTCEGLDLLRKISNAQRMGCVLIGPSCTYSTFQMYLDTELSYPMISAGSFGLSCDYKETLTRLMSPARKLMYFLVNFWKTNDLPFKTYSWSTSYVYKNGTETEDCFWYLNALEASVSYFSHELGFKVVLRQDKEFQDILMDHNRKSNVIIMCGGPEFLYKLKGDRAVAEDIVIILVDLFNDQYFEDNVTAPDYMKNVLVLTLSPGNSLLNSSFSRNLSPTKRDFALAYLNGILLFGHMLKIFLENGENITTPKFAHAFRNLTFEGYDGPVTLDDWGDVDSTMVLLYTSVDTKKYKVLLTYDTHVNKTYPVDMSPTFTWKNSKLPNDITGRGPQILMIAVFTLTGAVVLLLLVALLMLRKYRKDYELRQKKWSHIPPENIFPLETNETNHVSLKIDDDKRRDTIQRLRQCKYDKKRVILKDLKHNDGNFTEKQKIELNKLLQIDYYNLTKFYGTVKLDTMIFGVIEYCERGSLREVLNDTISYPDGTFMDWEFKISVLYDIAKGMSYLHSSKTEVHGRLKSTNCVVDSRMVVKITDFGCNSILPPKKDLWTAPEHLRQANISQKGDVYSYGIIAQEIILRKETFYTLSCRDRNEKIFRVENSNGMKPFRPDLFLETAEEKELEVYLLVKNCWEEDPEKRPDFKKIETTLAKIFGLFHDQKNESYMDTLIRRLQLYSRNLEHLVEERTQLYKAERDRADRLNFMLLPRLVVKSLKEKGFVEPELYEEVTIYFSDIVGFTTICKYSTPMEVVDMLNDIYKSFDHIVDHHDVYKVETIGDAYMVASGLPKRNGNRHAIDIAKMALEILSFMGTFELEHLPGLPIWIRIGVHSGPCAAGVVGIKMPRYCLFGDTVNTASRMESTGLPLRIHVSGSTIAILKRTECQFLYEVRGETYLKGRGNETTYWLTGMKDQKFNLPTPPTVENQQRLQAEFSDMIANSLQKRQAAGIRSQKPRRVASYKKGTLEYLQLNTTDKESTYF

In the case of “PNTCEICAYAACTGC (cysteine pairing not given here) [Guanylin, 15 amino acid peptide identified in mammalian intestine; native GCC ligand]”, the “activates guanylate cyclase at a level less than native ST” value is given as 10- to 100 fold.
